According to article PMC4908395, “Conformational flexibility related to enzyme activity: evidence for a dynamic active-site gatekeeper function of Tyr^215 in Aerococcus viridans lactate oxidase” (Scientific Reports, 2016):

Tests used:
[1] = molecular target: T1, avLOX (Aerococcus viridans L-lactate oxidase) (Aerococcus viridans, UniProt Q44467); assay: stopped-flow anaerobic FMN reduction, […] nm, hyperbolic fit; format: biochemical; conditions: pH 5.5, 20 °C, 50 mM potassium phosphate, read-out: Enzyme / Wild-type avLOX / Reaction pH / 5.5
T1 construct: wild type from Roche (grade 1, lyophilized); Y215 variants from plasmid pLO-1 in E. coli BL21 (DE3), no tag stated; missing residues 1-7 modeled for simulation only
T1 sequence (Q44467 1-374): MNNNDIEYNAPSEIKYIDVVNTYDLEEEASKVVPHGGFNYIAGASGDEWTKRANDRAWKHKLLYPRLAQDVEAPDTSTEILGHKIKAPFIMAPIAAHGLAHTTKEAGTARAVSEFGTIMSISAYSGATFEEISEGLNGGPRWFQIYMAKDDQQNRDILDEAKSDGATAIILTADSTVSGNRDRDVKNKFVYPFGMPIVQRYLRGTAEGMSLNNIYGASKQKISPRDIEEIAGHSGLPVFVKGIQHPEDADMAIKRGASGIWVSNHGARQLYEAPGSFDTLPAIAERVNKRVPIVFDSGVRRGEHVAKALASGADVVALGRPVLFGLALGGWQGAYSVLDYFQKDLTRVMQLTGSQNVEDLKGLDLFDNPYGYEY

C[C@H](O)C(=O)O [2] = assay: steady-state initial rates; format: biochemical, Aerococcus viridans; conditions: pH 6.5, 20 °C, air-saturated (250 μM O2), 50 mM potassium phosphate
C[C@H](O)C(=O)O [3] = assay: purified protein; conditions: pH 6.5, 20 °C, air-saturated (250 μM O2), 50 mM potassium phosphate
purified protein = substrate: C[C@H](O)C(=O)O; assay: purified protein; conditions: pH 6.5, 20 °C, air-saturated (250 μM O2), 50 mM potassium phosphate; remark: listed apart in the source
[4] = molecular target: the molecule itself; assay: crystal structure; hanging drop vapor diffusion, 20 °C; 10 mg/mL protein in 50 mM potassium phosphate pH 7.0 mixed with 30% polyethylene glycol, 50 mM Tris-HCl pH 8.0, 50 mM pyruvate; spacegroup P2_(1), 2.6 Å

Question: C[C@H](O)C(=O)O [L-lactate] was tested. Which Kd [1] did it give?
Answer: The Kd was 3 ± 0.4 mM.

Question: Which results are given for “avLOX (Aerococcus viridans L-lactate oxidase) (Aerococcus viridans ATCC 11563 = CCUG 4311; Y215F)”?
Answer: Km (C[C@H](O)C(=O)O [2]): 130 ± 10 µM; kcat (C[C@H](O)C(=O)O [2]): 22 ± 2 s⁻¹

Question: Which Km (C[C@H](O)C(=O)O [3]) does the source give for “avLOX (Aerococcus viridans L-lactate oxidase) (Aerococcus viridans ATCC 11563 = CCUG 4311; Y215H)” here?
Answer: The Km was 520 ± 120 µM.

B1: avLOX (Aerococcus viridans L-lactate oxidase) (Aerococcus viridans ATCC 11563 = CCUG 4311) (protein)
chain: MNNNDIEYNAPSEIKYIDVVNTYDLEEEASKVVPHGGFNYIAGASGDEWTKRANDRAWKHKLLYPRLAQDVEAPDTSTEILGHKIKAPFIMAPIAAHGLAHTTKEAGTARAVSEFGTIMSISAYSGATFEEISEGLNGGPRWFQIYMAKDDQQNRDILDEAKSDGATAIILTADSTVSGNRDRDVKNKFVYPFGMPIVQRYLRGTAEGMSLNNIYGASKQKISPRDIEEIAGHSGLPVFVKGIQHPEDADMAIKRGASGIWVSNHGARQLYEAPGSFDTLPAIAERVNKRVPIVFDSGVRRGEHVAKALASGADVVALGRPVLFGLALGGWQGAYSVLDYFQKDLTRVMQLTGSQNVEDLKGLDLFDNPYGYEY
Question: What does the source list for B1?
Answer: Km (purified protein): 500 ± 100 µM; kcat (purified protein): 88 ± 2 s⁻¹

B2: Aerococcus viridans L-lactate oxidase Y215F variant (enzyme)
chain: MNNNDIEYNAPSEIKYIDVVNTYDLEEEASKVVPHGGFNYIAGASGDEWTKRANDRAWKHKLLYPRLAQDVEAPDTSTEILGHKIKAPFIMAPIAAHGLAHTTKEAGTARAVSEFGTIMSISAYSGATFEEISEGLNGGPRWFQIYMAKDDQQNRDILDEAKSDGATAIILTADSTVSGNRDRDVKNKFVYPFGMPIVQRYLRGTAEGMSLNNIFGASKQKISPRDIEEIAGHSGLPVFVKGIQHPEDADMAIKRGASGIWVSNHGARQLYEAPGSFDTLPAIAERVNKRVPIVFDSGVRRGEHVAKALASGADVVALGRPVLFGLALGGWQGAYSVLDYFQKDLTRVMQLTGSQNVEDLKGLDLFDNPYGYEY
notes: also called Y215F avLOX; avLOX Y215F mutant
Question: B2 was tested. Which “stoichiometry N” value [4] did it give?
Answer: Its value is 4.
